Laboratory results published in a protein production outcome set (Wang et al. 2014).

Experiment: label from the status in PepcDB records

Sequence | protein production
ATHIIFTTHENSDGDGLGSQVALALALKALGKEVAIFNPTEVPPNYLFLKELHEINLFRDRDEESMQEFFLADLLVVLDANLHDRIGRLWPHVEFARQMSRLKVLCIDHHLEPEDFADITVCETYASSTGELVCDLVTALELRTGQQLFTPEVASALYAAIMTDTGSFRFPKTTPYTYRLAGMLVEKGADPELVYDRIYNAL | failed
MAKAVASQEVANMLNDWYILMKKRDISGSIEMKDDIDKAIEKMEEDHDVLLYYQMLDFRLRLLLEDISQSSTEKLEAISFKDKDPKSTDDKLNYYFYLFKGIYEDYKQNHTEALNFFRIAEKRLSVIQNEIEKAEFHYKIGVLYYNLKATWLSIHHINIASGIFQGYDGYAKRVINCKMLIGLNYIDQFKFAESEVLLKEAIEKTEKIGDQYLLPYTYYNMGFLKSKEDKHEEALKYYNKAFAIKDFETKAKYAYLLCVYENTRSLFKTNDPDQAFKWIDTGFKKAQEVNSEIFELKFKTLYTLHSDCQNKLEVIKDFIHQLEDKKAWVDLEELLMDVANYYRENKLYEEAIYFYIKTDKASKLAGRGGE | failed
MDAPTSQRYTAKARWLHWIMAALIVLAYTLILSRTQFGKGSEYRTLVVQSHFWVGIVVLVLAFFRVAERRRQRPPGITPPLEGVLRAAATLSHYALYAFLFTQPLLGLLTVMVEKGSLPIPLTDLQIPWPLPISDHTAEYFEDLHKLLGKIFYYVIGLHVVAALWHHIVRKDNTLKRML | failed
MTKMNRETVITEALDLLDEVGLDGVSTRRLAKRLGVEQPSLYWYFRTKRDLLTAMAQAAMAPHAAEPLPEPGEDWHGWFLRNTRSFRRTLLARRDGARLHAGSRPTADLDRVRRKMDFLVASGVPERHAQMAMLAAGRFTVGCVLEEQAETGAGDTADLPADVPEIDHESAFEAGLALITDGLVRHVDAR | not failed
MARLNVNPTRMELSRLKKQLTTATRGHKLLKDKQDELMRRFIALVKENNELRIQVEQEVTDALSNFVLANATLNEAFIEELVAIPAEKVELEIIEQNILSVPVPKMIFDYDESVQEAPLDYGYVNSNSELDQAFAKISSILPKLLALANVEKTCQLLSKEIEKTRRRVNALEYMTIPQLEETIYYIQMKLEENERGEITRLIKIKSMNKENLEHHHHHH | failed
MKTMRKILEIDEERCNGCGLCVLDCAEGAIAIVDGKAKIVSDSFCDGLGACIGSCPQDALHIIEREAVPFDEEAAMEHVRSQGGTPEANHGHGHGAGTPHRHGQSAEHGGHGRIPGHGGCPGAAMRRFDSAESPAFAVAEGTVKGPGHWPLKIRLVPPTAPFLKGADVLVAADCAAAASPIFHSHFAAGKVVLIGCPKFDDTEAYAERLADILRVSGIASLTVLRMEVPCCRGLSAAAEKARVLSGTSLVLKEVIMTCAGGPAAPAPLSSLLEHHHHHH | not failed
MLLQANRGLGLSAHIIDHCNLILKFPEGTNSTWYNAQFKVFEALEFKYNVCEAVLLWEQYRNMTTVLTREYLDVRPDGWLDYAAMRIAQLGADKCYNRTLCEEHLNVILPAKPPFHPRQFHKCAVVGNSGDLLKTEFGEEIDSHDAVFRDNEAPVNEKYAKYVGVKRDFRLVVRGAARNMIKILNGSDNEVLIIKSVTHRDFNEMIKRIPNPVYLFQGIVLRRGAKGTGMKSIELALSMCDIVDIYGFTVDPGYTEWTRYFSTPRKGHNPLQGRAYYQLLECLGVQITC | failed
MDFQAVTDELKTWTKARVMPGFSVALLTGKTVQTAVSGEAQWFPQPAPLQPHMLYDVASLTKVIGTTTVFLQAWDQGLVSPDMPLHRFLPDFPHTTTFRQALTHTSGLEGYIPHRNALPAPALKQALMTQLTVTEEVDRQVVYRDVNLLLVGWALEQVYHQPIQTLITRQVIQPLALPQATFQPDSQQCVPTTYSPAVGLRQGVVHDPKSAILGKHSGAAGLFASLADLVTFTEYFFGNRQSASWPAHAVDLTQDWTKHHLGRSLGWDLRRDGQGRLWLYHTGYTGTFWLIQPDDQLALVVLTNRVHPQPNPAFLARRDALIARFLSDFKTMPAV | failed
MKKQSLVATSLLAAFITGACTADTNIQAKPIVSQVKAKKLIKPNVLFIAVDDLRVQYGPYDFDKAITPNIDRLVNQGVAFTQAYSNVPVCGASRASMLTGVRPTINRFVAFESADKVAPWAPSIAKVFSDNGYTTYSLGKIFNNLTDHANDWSEFPWRPEGAKNEDSTSGNKKQASLLSRHDYVTSDGVAMAKKGIKNHPAFEKADVVDDAYKNGKIAKRAISDLKRLKKAGKPFFLAVGLKKPHLPFNAPSKYWDLYDESTIELTKIPLKAKDSPSQSDHNWNELRNYGHDGAMPKKGKMSDEMARKLIHGYHAATSYSDALIGNILTELESLGLEENTIVVLWGDHGWSLGEHTHWAKHSSYDVTNHIPLIIKVPGMTNGEFSKGLVESVDIFPTLTQLAGLPAPSSLQGDSLVPMLKNPQATVNDAVYPRWKNADSIRTPNYMYTEWRNKKNNKVIARMLFDHRVDPRETINVAENFKYAQVVVDLHNQLAAHIAQVEK | failed
MEATAVNPSIVTASRTVQPYRRLSTLSLRFPTYRNKRVSPFTLTITRCSTTKSREAGQDSSISLKRGLVFDLGVSKDSWHSEEIGSPVVKRFLSDNEERWYMWYHGSSKQNPVSDSIGLAVSNNGIHWERGNGKVESSEDVGLVMSCGEDWWGFDTASVRPGEVVIMSSSKVRANSSVYWMYYTGYTKETVEFQSQDFTSVLGNPERFHLCDENAEKSRVYYRSLPGLAISQDGRHWARIEGEHHSGALFDVGSEKDWDFLYIASPHVVFHGDGDLRMYYHSFDEKTGEFCIGMARSRDGIKWLKLGKILGGRKSEKDGLGFFDELGGRYPCVTRNKRDESYVMAYEGVDRTGKTSIGFAVSKDGIKDWKRVQDEEAVIAVGEGGAWDNEGVGCPYLIEMDGDSDHQWRLYYRGVGNGGRTAMRGEQFELEEDRDGPLELLQSLRSKATELLLREEWEESIKVYTEFIDLSRRQVSSTGGSDPDPDSIAKLRKSLCLALCNRAEARARLRDFLEAMRDCDQALEIEKTHFKTLLCKGKVLLGLSKYSLALECFKTALLDPQASDNLETVTVYIEKCKKLEFQAKTGAFDLSDWILSEFRGKCPELAEFIGSIEIKKSELSGRGLFATKNIVAGTLVLVTKAVAIERGILGNGECGEKAQLIMWKNFVEEVTESVRKCGRTRRVVSALSTGQGEDSLEIPEIALFRPDEAFETCGDWKQSLDTEKLLSILDVNSLVEDAVSGKVMGKNKEYYGVGLWTLASFINHSCIPNARRLHVGDYVIVHASRDIKTGEEISFAYFDVLSPLEKRKEMAESWGFCCGCSRCKFESVLYATNQEVREFEMGLERGVDAGNAVYMVEEGMKRWKVKGKDKGLLRASYWGVYDEIYNSERLMKRWGRKIPTMEVVVDSVSDVVGSDERLMKMAVEGMMKKHGGFSNIVEMEKIMKLGKGVYGKVVSKKKAMKTLLGIE | failed
MQASASNSSSYTVNASVLHVRAGSSTSHDIISRVYNGQSLNVIGEENGWYKININGKTGFVSGEFVSKNGTSNSNVSTTGGKNKVTADVLRVRTAPNTSSSVSGRVYEGQTLNVIGQENGWVKINHNGQVGYVSGEFVSGVSSNAGSSNSNTNNNNQESVKPASGNYTVNVSSLRVRTGPSTSHTTVGSVTKGQVVQVVGEVQDWFKINYAGQTAYVSKDYVTKGGSSDNVTQGNNQNNNQNNNVTVQTGGTYVVNATSLRVRTGPATYHSVIGGVLNGTTLNVIGSEGSWFKVNYQGKTGYVSSEFMKFVKGGTTTPEQPKQPEQPNQGAIGDYYINASALNVRSGEGTNYRIIGALPQGQKVQVISENSGWSKINYNGQTGYIGTRYLSKTPVGGAVDNNKPNNNQNNNQNNNNNTGNNSGNSSSILAYAKGMQGVPYVWGGTSANGVDCSGYIYHVFKKFGHNISRQSVAGYWGSLPQTSNPQPGDLIYFQNTYKSGPSHMGIYLGGGSFIQAGDKGVAIASLSNSYWKSHFLGYTKAPLEHHHHHH | not failed
MKILFIKLSALGDVLASTPLFASTKAEHPDWFVGHVVARPYADATRNNAHVDAQFVVDSPLSKGLAEKIGVAVGIWRYVLRERYDIAVVLHRSFVLQLICRLALVKKVVGYEGPFSFILNHSIPFSMRGNRSNLELRLLKSAGIIRDEKKKLRFDIDFGNVDPSRLRALPDAFIAVNAGGGNADAHAANKLWPAEHYGALIKQLPLPAVMLGHGAADERIRDRVAATGATFVDLIGKTNLDETAVVLRRSSLYVGNDSALLYLAASLGVTTIGIYGPTDPAAFSPLGANNLWLSGKTSCAPCYSSFDGIGGRMYTCADNICMKAVTVESVSERIHAALHQDQNLQVAGPDVVGSGQGGAASEAGDRARAHARAGHQAVGDGGFAVPVSRRPPVGARVSGRDD | failed
MIDEWPVPTAAAAVIGPSGVLATHGDDAKPFALASVTKLLVARAAQVAIEEGVVELDTPAGPDGSTVRHLLAHTSGVAMNSADTVAQVGQRRVYSNFGFGLLAHAIEDAAEIEFGRYLTEAVFEPLGMSTSKLLGGADAAGFGVTSTVSDLARFAGDLLRPALVSQQMHDEATSVQFPGVNGVLPGFGSQRPNDWGLGFEIRDGKTPHWTGSSNSPRTFGHFGQSGTFLWVDPVADLALLVLTDRDFGDWTYPLWPAISDGVLREIGTHLEHHHHHH | failed
MDKRFVQAHKEARWALWLTLLYLAAWLAAAYLPGVAIGFTGLPHWFEMACLLVPLLFILLCWAMVKLIFRDISLEDDDAV | failed
MAVNACLSPPEMMAVRPGEGVPNSKSTQGKTRLYLTKPSWIVRTQSGAKTCMKSKAKGRCVICHGSGRVDCFNCCGKGRTNCVDVEMLPRGEWPKWCKSCGGSGLSDCSRCLGTGERASFFFLWFDILIVMSSVALPAMSCRSSGEQVKEIRVCTNRTCRRQGSFQILETLTALAPPELRVTHCACLGRCGSGPNLVALPQGLILRHCATPSRAAEILFSLCGDGREASSSSAVTDALTALALTNNALSQIDAGNFSEAEALLTQALELKPYGGLHRIFKHRSVAKLGMLDYSGALEDISQALALAPNYSEPYICQGDVYVAKGQYDLAEKSYLTCLEIDPSLRRSKPFKARIAKLQQKVVELDVT | failed
MTAGLSAVVVGADRLGNIPDLLKGHNISITHHISGRDPSHQKKTLQLPSGTQLVILLTDFLGHNVMKTFRHAAQRGGIRVVACRRSVCSMQQALHQCGLCARSLEHHHHHH | not failed
MVHCADQGMARAARDLAGALIASSAVLYNQFDAWSRSHAAALEAVRRGGDTEGEAWLLTGLGQLRYEQDKFEESYAYFADALRLFDERGDVPRGAALSLAGMGSARREQARFAEALQLLSSALERYEQTDDVGARARVLYGIGYVHREQGRGAQAWEALSGALGLYRTASDRHGEALTLRSLALCRRADGAWADAERLLHEALRIFVGLQDTFGVMYTEQSLAKVELRRGHLEKARERLGRCLEVARERQDRFGEALVLRTLGEWCLAAGETERAREPLERALAAWEALDLPLWGARTAWDLAEVSASRATNRRRGQPARRRWRPSARWTAGRRGSARTKACRTR | failed
MADFKIVISDPQAPKEETVVKVKVVGDPEIKFDENVKEGFELPILKMNSKTAEKIKAVHGVATIRMYKPGTKDKVKITGKIIVDDNIPENEVRVNAEQLVNATGTNELEGELFRARAWQIRINDDRTKLLIGLKIGDEFDGSIVGLKNVKLKIRGGSDNSGFPMRPDVMGGVKKRVLLSGPPGFHPREKGERRRKMIRGNTITEDIVQINTVIKYV | failed
MGQPQQPEGAGAEEAAAGTDSGTDTGTGAGAGAATGASATRPPLRVGMVGYAFMGAAHSQGWRTAGRVFDLPLNPVLAAICGRDADAVRLAADRHGWASTETDWRTLVERDDIDLVDICTPGDSHSEIALAALAAGKHVLCEKPLANTVEEAQAMTRAAEEAAARGQLAMVGFNYRRVPATALARRMVAEGRVGRLRHLRVTYLQDWLVDPKAPLTWRLRKELAGSGALGDLGAHIVDLAQYLSGERIAGVSALTETFVRERPLPAGAPRGLSAGSADGVTGQVTVDDAAVFTGRLTSGALVSFEATRYATGRKNALRIELNGERGSLAFDLERLNELSYHDGTEPGEHAGFRRILVTEPEHPYLEAWWPPGHGLGYEHTFVHQARDLVHAVAEGRGPEPSFADGLQVQRVLAAVEESAEKNSVYTPITP | failed
